These results are taken from patent US8986682B2, “Method to increase the absorption of unsaturated fatty acids by human infants” (Swedish Orphan Biovitrum AB (publ), priority 2010, dated 2015).

Like-named read-outs stand apart in the source and are kept apart here.

One series deals with patients. To be noted: cited from earlier work.
Series [1] can be described thus: Specific activity with PNPB substrate, sodium cholate as bile-salt activator. It is filed as biochemical. To be noted: 20 mM sodium cholate activation solution, 27° C., after HA-HPLC and SE-HPLC purification. The protocol: Differences in functional properties are observed between rhBSSL-CHO and BSSL-MAM and from rhBSSL-OVI. The specific activity of rhBSSL-CHO is observed to be higher than that of the other forms of BSSL. The specific activities of BSSL-MAM and rhBSSL-OVI are only 80% of that of rhBSSL-CHO based on mass. Each sample is specifically purified by HA-HPLC and SE-HPLC before determination of specific activity. Specific activity is determined using 4-nitrophenyl ester butyric acid (PNPB) as a substrate for BSSL, and detection of the release of 4-nitrophenol. Briefly, a dilution series of rhBSSL (for example, from 20 to 160 ng activity/mL) is prepared in PBS with 0.1% BSA. 200 μl of these rhBSSL solutions is added to 25 μl of an activation solution containing 20 mM sodium cholate (as bile-salt activator) in PBS with 0.1% BSA. These solutions are preincubated in a spectrophotometer at 27° C. for 5 minutes. Just before measuring, 25 μl of a well-mixed substrate solution containing 5 mM PNPB in PBS-Tween is added. The formation of 4-nitrophenol can be detected by its absorbance at 400 nm and the increase in absorbance is measured during 90 seconds. The active amount of BSSL is determined using a standard curve of an rhBSSL reference standard.

The next series concerns kittens. To be noted: 0.1 mg/mL in kitten-formula mixed with cow milk, 5 days; cited from earlier work.
Series [2] concerns CF patients (aged 12 to 39 years) with PI. The conditions noted are these: single dosing of 0.2 g or 1 g as complement to 25% of regular Creon dosing; cited from earlier work.

Consider “agalsidase alfa: recombinant human alpha-galactosidase A produced in a continuous line of human fibroblasts”, for which, in the series on patients (in vivo), the “Patients with presence of IgG” value is on record as 55%.
In the case of “agalsidase beta: recombinant human alpha-galactosidase A produced in CHO cells”, the “Patients with presence of IgG” value in the series on patients (treated patients) is reported as “almost all patients”.

B1: BSSL-MAM: native human milk bile-salt-stimulated lipase (protein, UniProt P19835 21-753, looked up)
Bile salt-activated lipase: AKLGAVYTEGGFVEGVNKKLGLLGDSVDIFKGIPFAAPTKALENPQPHPGWQGTLKAKNFKKRCLQATITQDSTYGDEDCLYLNIWVPQGRKQVSRDLPVMIWIYGGAFLMGSGHGANFLNNYLYDGEEIATRGNVIVVTFNYRVGPLGFLSTGDANLPGNYGLRDQHMAIAWVKRNIAAFGGDPNNITLFGESAGGASVSLQTLSPYNKGLIRRAISQSGVALSPWVIQKNPLFWAKKVAEKVGCPVGDAARMAQCLKVTDPRALTLAYKVPLAGLEYPMLHYVGFVPVIDGDFIPADPINLYANAADIDYIAGTNNMDGHIFASIDMPAINKGNKKVTEEDFYKLVSEFTITKGLRGAKTTFDVYTESWAQDPSQENKKKTVVDFETDVLFLVPTEIALAQHRANAKSAKTYAYLFSHPSRMPVYPKWVGADHADDIQYVFGKPFATPTGYRPQDRTVSKAMIAYWTNFAKTGDPNMGDSAVPTHWEPYTTENSGYLEITKKMGSSSMKRSLRTNFLRYWTLTYLALPTVTDQEATPVPPTGDSEATPVPPTGDSETAPVPPTGDSGAPPVPPTGDSGAPPVPPTGDSGAPPVPPTGDSGAPPVPPTGDSGAPPVPPTGDSGAPPVPPTGDSGAPPVPPTGDSGAPPVPPTGDAGPPPVPPTGDSGAPPVPPTGDSGAPPVTPTGDSETAPVPPTGDSGAPPVPPTGDSEAAPVPPTDDSKEAQMPAVIRF
Consider B1, for which the “Specific activity relative to that of rhBSSL-CHO, based on mass” value in series [1] amounted to 80%. The “Growth rate versus kittens fed formula alone” value in the series on kittens is “twice”.

B2: rhBSSL-OVI: recombinant human BSSL produced in / isolated from the milk of transgenic sheep (protein, UniProt P19835 21-753, looked up)
Bile salt-activated lipase: B1 Bile salt-activated lipase
modifications: produced in transgenic sheep milk
Regarding B2, the “Specific activity relative to that of rhBSSL-CHO, based on mass” value in series [1] was determined as 80%. Besides, the “Lipid uptake versus Creon alone” value in series [2] was “more rapid and efficient lipid uptake”.
